4 molecules from EP1674110A1 (NOVO NORDISK A/S, dated 2000) can be followed below.

In assay [1] the target is T1, bovine pancreatic trypsin inhibitor (bovine, UniProt P00974 36-93). The experiment in a line: scintillation proximity assay with 125I-BPTI.
The target in assay [2] is T1, bovine pancreatic trypsin inhibitor. In words: not described.

B1: native human heparin-binding protein (other)
chain: IVGGRKARPRQFPFLASIQNQGRHFCGGALIHARFVMTAASCFQSQNPGVSTVVLGAYDLRRRERQSRQTFSISSMSENGYDPQQNLNDLMLLQLDREANLTSSVTILPLPLQNATVEAGTRCQVAGWGSQRSGGRLSRFPRFVNVTVTPEDQCRPNNVCTGVLTRRGGICNGDGGTPLVCEGLAHGVASFSLGPCGRGPDFFTRVALFRDWIDGVLNNPGP
notes: also called HBP; hHBP
As for B1, the binding result in assay [1] is “binds”.

B2: [R23S,F25E]HBP (other)
chain: IVGGRKARPRQFPFLASIQNQGSHECGGALIHARFVMTAASCFQSQNPGVSTVVLGAYDLRRRERQSRQTFSISSMSENGYDPQQNLNDLMLLQLDREANLTSSVTILPLPLQNATVEAGTRCQVAGWGSQRSGGRLSRFPRFVNVTVTPEDQCRPNNVCTGVLTRRGGICNGDGGTPLVCEGLAHGVASFSLGPCGRGPDFFTRVALFRDWIDGVLNNPGP
notes: Expressed in sf9 insect cells; also called [R23S,F25E]HBP mutant
Turning to B2, the binding result in assay [1] is given as “binds”.

B3: [G175Q]HBP (other)
chain: IVGGRKARPRQFPFLASIQNQGRHFCGGALIHARFVMTAASCFQSQNPGVSTVVLGAYDLRRRERQSRQTFSISSMSENGYDPQQNLNDLMLLQLDREANLTSSVTILPLPLQNATVEAGTRCQVAGWGSQRSGGRLSRFPRFVNVTVTPEDQCRPNNVCTGVLTRRGGICNGDQGTPLVCEGLAHGVASFSLGPCGRGPDFFTRVALFRDWIDGVLNNPGP
notes: also called [G175Q]HBP mutant
B3: in assay [1], the binding result is “no binding”.

B4: HBP mutant (G175N) (other)
chain: IVGGRKARPRQFPFLASIQNQGRHFCGGALIHARFVMTAASCFQSQNPGVSTVVLGAYDLRRRERQSRQTFSISSMSENGYDPQQNLNDLMLLQLDREANLTSSVTILPLPLQNATVEAGTRCQVAGWGSQRSGGRLSRFPRFVNVTVTPEDQCRPNNVCTGVLTRRGGICNGDNGTPLVCEGLAHGVASFSLGPCGRGPDFFTRVALFRDWIDGVLNNPGP
On to B4, for which the binding result in assay [2] was “no binding”.
